Data on one substance can be found in article PMC5797133.

The target of experiment [1] is short-chain dehydrogenase/reductase from Serratia marcescens BCRC 10948 (Serratia marcescens BCRC 10948). Nature of the experiment: crystal structure; apo form, 1.47 Å, space group P4(1)2(1)2; sitting drop, 20 °C, 50 mM HEPES pH 7.0, 40% tacsimate pH 7.0, 2 mM spermine, 2 mM hexamine cobalt (III) chloride; homodimer AB in the asymmetric unit, tetramer by two-fold crystallographic symmetry.

For experiment [2] the target is unchanged. The experiment is described as follows: SEC; size-exclusion chromatography of the purified SmSDR; single peak; conditions not given. (In general: Size exclusion chromatography separates by hydrodynamic size, large species first.)

“short-chain dehydrogenase/reductase from Serratia marcescens BCRC 10948 (enzyme)”: the stoichiometry N in experiment [1] and in experiment [2] was 4 throughout.
